Fewer inactive variants are shown than the library holds.
What was measured:
biotinyl-Val-oxazolone = experiment: self-aminoacylation, catalytic enhancement (BVO) (fold over background); higher = more active; k-Seq, kA / k0A0; sequences stand for … in GGGAAUGGAUCCACAUCUACGAAUUC…UUCACUGCAGACUUGACGAAGCUG
Outline: (§1)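 Mutagenized RNA pools (0.43 μM; 21-nt variable region) were treated with 2–1250 μM of each biotinyl-aminoacyl-oxazolone. Conditions were 50 μL HEPES/NaCl/KCl/MgCl2/CaCl2 buffer, 5% acetonitrile, pH 6.9–7.0, room temperature, 90 minutes. Catalytic enhancement, the median kA relative to the uncatalyzed rate, was derived from streptavidin capture, qPCR and Illumina sequencing.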

biotinyl-Met-oxazolone = experiment: self-aminoacylation, catalytic enhancement (BMO) (fold over background); higher = more active; k-Seq, kA / k0A0; sequences stand for … in GGGAAUGGAUCCACAUCUACGAAUUC…UUCACUGCAGACUUGACGAAGCUG
Outline: as §1

biotinyl-Phe-oxazolone = experiment: self-aminoacylation, catalytic enhancement (BFO) (fold over background); higher = more active; k-Seq, kA / k0A0; sequences stand for … in GGGAAUGGAUCCACAUCUACGAAUUC…UUCACUGCAGACUUGACGAAGCUG
Outline: as §1

biotinyl-Trp-oxazolone = experiment: self-aminoacylation, catalytic enhancement (BWO) (fold over background); higher = more active; k-Seq, kA / k0A0; sequences stand for … in GGGAAUGGAUCCACAUCUACGAAUUC…UUCACUGCAGACUUGACGAAGCUG
Outline: as §1

biotinyl-Leu-oxazolone = experiment: self-aminoacylation, catalytic enhancement (BLO) (fold over background); higher = more active; k-Seq, kA / k0A0; sequences stand for … in GGGAAUGGAUCCACAUCUACGAAUUC…UUCACUGCAGACUUGACGAAGCUG
Outline: as §1

biotinyl-Ile-oxazolone = experiment: self-aminoacylation, catalytic enhancement (BIO) (fold over background); higher = more active; k-Seq, kA / k0A0; sequences stand for … in GGGAAUGGAUCCACAUCUACGAAUUC…UUCACUGCAGACUUGACGAAGCUG
Outline: as §1

Sequence: AAUCACCCAGGUCAUCGGGUG [Fam2.2 aminoacylation ribozyme variant]
- self-aminoacylation (biotinyl-Val-oxazolone): 4.93
- self-aminoacylation (biotinyl-Met-oxazolone): 4.82
- self-aminoacylation (biotinyl-Phe-oxazolone): 27.9
- self-aminoacylation (biotinyl-Trp-oxazolone): 6.23
- self-aminoacylation (biotinyl-Leu-oxazolone): 3.76
- self-aminoacylation (biotinyl-Ile-oxazolone): 4.58

Sequence: GUUCAGCUAGGUCAUCGGGUG [Fam2.2 aminoacylation ribozyme variant]
- self-aminoacylation (biotinyl-Val-oxazolone): 4.11
- self-aminoacylation (biotinyl-Met-oxazolone): 3.72
- self-aminoacylation (biotinyl-Phe-oxazolone): 25
- self-aminoacylation (biotinyl-Trp-oxazolone): 5.82
- self-aminoacylation (biotinyl-Leu-oxazolone): 5.08
- self-aminoacylation (biotinyl-Ile-oxazolone): 3.97

Sequence: CGACUUCAAACAAUCGGCCUG [Fam1A.1 aminoacylation ribozyme variant]
- self-aminoacylation (biotinyl-Val-oxazolone): 4.06
- self-aminoacylation (biotinyl-Met-oxazolone): 3.62
- self-aminoacylation (biotinyl-Phe-oxazolone): 277
- self-aminoacylation (biotinyl-Trp-oxazolone): 95.7
- self-aminoacylation (biotinyl-Leu-oxazolone): 6.69
- self-aminoacylation (biotinyl-Ile-oxazolone): 3.29

Sequence: AUUCACCUAGGUCAUCGGGUU [Fam2.2 aminoacylation ribozyme variant]
- self-aminoacylation (biotinyl-Val-oxazolone): 9.43
- self-aminoacylation (biotinyl-Met-oxazolone): 18.4
- self-aminoacylation (biotinyl-Phe-oxazolone): 118
- self-aminoacylation (biotinyl-Trp-oxazolone): 13.8
- self-aminoacylation (biotinyl-Leu-oxazolone): 26.4
- self-aminoacylation (biotinyl-Ile-oxazolone): 10.8

Sequence: AGUAACCUAGGUCAUCGGGUG [Fam2.2 aminoacylation ribozyme variant]
- self-aminoacylation (biotinyl-Val-oxazolone): 3.63
- self-aminoacylation (biotinyl-Met-oxazolone): 5.37
- self-aminoacylation (biotinyl-Phe-oxazolone): 33.3
- self-aminoacylation (biotinyl-Trp-oxazolone): 7.15
- self-aminoacylation (biotinyl-Leu-oxazolone): 6.07
- self-aminoacylation (biotinyl-Ile-oxazolone): 4.57

Sequence: CUACUUCGAACACUCGGUCUG [Fam1A.1 aminoacylation ribozyme variant]
- self-aminoacylation (biotinyl-Val-oxazolone): 1.18
- self-aminoacylation (biotinyl-Met-oxazolone): 1.04
- self-aminoacylation (biotinyl-Phe-oxazolone): 3.18
- self-aminoacylation (biotinyl-Trp-oxazolone): 1
- self-aminoacylation (biotinyl-Leu-oxazolone): 1.32
- self-aminoacylation (biotinyl-Ile-oxazolone): 1.02

Sequence: AAGUUUGCUAAUAGUCGCCGG [Fam3.1 aminoacylation ribozyme variant]
- self-aminoacylation (biotinyl-Val-oxazolone): 4.14
- self-aminoacylation (biotinyl-Met-oxazolone): 5.01
- self-aminoacylation (biotinyl-Phe-oxazolone): 10.5
- self-aminoacylation (biotinyl-Trp-oxazolone): 5.77
- self-aminoacylation (biotinyl-Leu-oxazolone): 3.53
- self-aminoacylation (biotinyl-Ile-oxazolone): 3.08

Sequence: AAUCACCUGGGUCAUCGGGUG [Fam2.2 aminoacylation ribozyme variant]
- self-aminoacylation (biotinyl-Val-oxazolone): 6.36
- self-aminoacylation (biotinyl-Met-oxazolone): 4.32
- self-aminoacylation (biotinyl-Phe-oxazolone): 31.9
- self-aminoacylation (biotinyl-Trp-oxazolone): 7.63
- self-aminoacylation (biotinyl-Leu-oxazolone): 4.47
- self-aminoacylation (biotinyl-Ile-oxazolone): 4.12

Sequence: AUUAACAUAGGUCAUCGGGUG [Fam2.2 aminoacylation ribozyme variant]
- self-aminoacylation (biotinyl-Val-oxazolone): 3.51
- self-aminoacylation (biotinyl-Met-oxazolone): 6.29
- self-aminoacylation (biotinyl-Phe-oxazolone): 38
- self-aminoacylation (biotinyl-Trp-oxazolone): 6.55
- self-aminoacylation (biotinyl-Leu-oxazolone): 7
- self-aminoacylation (biotinyl-Ile-oxazolone): 3.92

Sequence: CCACAGUUCAAGCUAUCGGUC [Fam1B.1 aminoacylation ribozyme variant]
- self-aminoacylation (biotinyl-Val-oxazolone): 1.27
- self-aminoacylation (biotinyl-Met-oxazolone): 1.25
- self-aminoacylation (biotinyl-Phe-oxazolone): 0.851
- self-aminoacylation (biotinyl-Trp-oxazolone): 0.749
- self-aminoacylation (biotinyl-Leu-oxazolone): 1.1
- self-aminoacylation (biotinyl-Ile-oxazolone): 1.21

Sequence: AUUACCCUAGUCAUCGAGUGC [Fam2.1 aminoacylation ribozyme variant]
- self-aminoacylation (biotinyl-Val-oxazolone): 1.04
- self-aminoacylation (biotinyl-Met-oxazolone): 1.06
- self-aminoacylation (biotinyl-Phe-oxazolone): 1.25
- self-aminoacylation (biotinyl-Trp-oxazolone): 0.589
- self-aminoacylation (biotinyl-Leu-oxazolone): 1.35
- self-aminoacylation (biotinyl-Ile-oxazolone): 1.15

Sequence: AAGUUUGCUAAUAGUUGGAAG [Fam3.1 aminoacylation ribozyme variant]
- self-aminoacylation (biotinyl-Val-oxazolone): 1.25
- self-aminoacylation (biotinyl-Met-oxazolone): 1.38
- self-aminoacylation (biotinyl-Phe-oxazolone): 1.47
- self-aminoacylation (biotinyl-Trp-oxazolone): 0.896
- self-aminoacylation (biotinyl-Leu-oxazolone): 1.21
- self-aminoacylation (biotinyl-Ile-oxazolone): 1.29

Sequence: AUAACCCAGGUCAUCGAGUGA [Fam2.1 aminoacylation ribozyme variant]
- self-aminoacylation (biotinyl-Val-oxazolone): 2.95
- self-aminoacylation (biotinyl-Met-oxazolone): 5.5
- self-aminoacylation (biotinyl-Phe-oxazolone): 19.3
- self-aminoacylation (biotinyl-Trp-oxazolone): 6.13
- self-aminoacylation (biotinyl-Leu-oxazolone): 4.72
- self-aminoacylation (biotinyl-Ile-oxazolone): 2.67

Sequence: AAGUCUGCUAAUAGUCUCAAG [Fam3.1 aminoacylation ribozyme variant]
- self-aminoacylation (biotinyl-Val-oxazolone): 1.2
- self-aminoacylation (biotinyl-Met-oxazolone): 1.76
- self-aminoacylation (biotinyl-Phe-oxazolone): 19.4
- self-aminoacylation (biotinyl-Trp-oxazolone): 4.59
- self-aminoacylation (biotinyl-Leu-oxazolone): 1.43
- self-aminoacylation (biotinyl-Ile-oxazolone): 1.14

Sequence: CUACUGUAAACAAUCGGUCUG [Fam1A.1 aminoacylation ribozyme variant]
- self-aminoacylation (biotinyl-Val-oxazolone): 0.741
- self-aminoacylation (biotinyl-Met-oxazolone): 0.887
- self-aminoacylation (biotinyl-Phe-oxazolone): 0.659
- self-aminoacylation (biotinyl-Trp-oxazolone): 0.53
- self-aminoacylation (biotinyl-Leu-oxazolone): 0.863
- self-aminoacylation (biotinyl-Ile-oxazolone): 0.897

Sequence: CUACUUCAAACACUCGGUGUG [Fam1A.1 aminoacylation ribozyme variant]
- self-aminoacylation (biotinyl-Val-oxazolone): 1.59
- self-aminoacylation (biotinyl-Met-oxazolone): 1.72
- self-aminoacylation (biotinyl-Phe-oxazolone): 4.18
- self-aminoacylation (biotinyl-Trp-oxazolone): 1.63
- self-aminoacylation (biotinyl-Leu-oxazolone): 1.5
- self-aminoacylation (biotinyl-Ile-oxazolone): 1.81

Sequence: CCAUACUUCAAGCAAUGGGUC [Fam1B.1 aminoacylation ribozyme variant]
- self-aminoacylation (biotinyl-Val-oxazolone): 1
- self-aminoacylation (biotinyl-Met-oxazolone): 0.972
- self-aminoacylation (biotinyl-Phe-oxazolone): 0.918
- self-aminoacylation (biotinyl-Trp-oxazolone): 0.627
- self-aminoacylation (biotinyl-Leu-oxazolone): 0.926
- self-aminoacylation (biotinyl-Ile-oxazolone): 1.04

Sequence: AUUCACCUAGGUGAUCUGGUG [Fam2.2 aminoacylation ribozyme variant]
- self-aminoacylation (biotinyl-Val-oxazolone): 1.47
- self-aminoacylation (biotinyl-Met-oxazolone): 1.99
- self-aminoacylation (biotinyl-Phe-oxazolone): 7.54
- self-aminoacylation (biotinyl-Trp-oxazolone): 1.84
- self-aminoacylation (biotinyl-Leu-oxazolone): 2.36
- self-aminoacylation (biotinyl-Ile-oxazolone): 1.34

Sequence: CUACUUCAAACAAUCCGUCUC [Fam1A.1 aminoacylation ribozyme variant]
- self-aminoacylation (biotinyl-Val-oxazolone): 0.751
- self-aminoacylation (biotinyl-Met-oxazolone): 0.471
- self-aminoacylation (biotinyl-Phe-oxazolone): 1.18
- self-aminoacylation (biotinyl-Trp-oxazolone): 0.858
- self-aminoacylation (biotinyl-Leu-oxazolone): 0.44
- self-aminoacylation (biotinyl-Ile-oxazolone): 0.634

Sequence: AUUACCCUGUACAUCGAGUGA [Fam2.1 aminoacylation ribozyme variant]
- self-aminoacylation (biotinyl-Val-oxazolone): 6.19
- self-aminoacylation (biotinyl-Met-oxazolone): 12.5
- self-aminoacylation (biotinyl-Phe-oxazolone): 71.1
- self-aminoacylation (biotinyl-Trp-oxazolone): 13.2
- self-aminoacylation (biotinyl-Leu-oxazolone): 11.6
- self-aminoacylation (biotinyl-Ile-oxazolone): 5.18

Sequence: AAGGCUGCUAAUAGUCGCAAG [Fam3.1 aminoacylation ribozyme variant]
- self-aminoacylation (biotinyl-Val-oxazolone): 1.38
- self-aminoacylation (biotinyl-Met-oxazolone): 2.04
- self-aminoacylation (biotinyl-Phe-oxazolone): 20
- self-aminoacylation (biotinyl-Trp-oxazolone): 7.19
- self-aminoacylation (biotinyl-Leu-oxazolone): 1.64
- self-aminoacylation (biotinyl-Ile-oxazolone): 1.73

Sequence: AAGUUUGCUAACUGUCGCAAG [Fam3.1 aminoacylation ribozyme variant]
- self-aminoacylation (biotinyl-Val-oxazolone): 0.79
- self-aminoacylation (biotinyl-Met-oxazolone): 1.01
- self-aminoacylation (biotinyl-Phe-oxazolone): 0.773
- self-aminoacylation (biotinyl-Trp-oxazolone): 0.984
- self-aminoacylation (biotinyl-Leu-oxazolone): 1
- self-aminoacylation (biotinyl-Ile-oxazolone): 0.784

Sequence: CCACCCUUCAAGCAAUCGCUC [Fam1B.1 aminoacylation ribozyme variant]
- self-aminoacylation (biotinyl-Val-oxazolone): 2.28
- self-aminoacylation (biotinyl-Met-oxazolone): 1.87
- self-aminoacylation (biotinyl-Phe-oxazolone): 0.977
- self-aminoacylation (biotinyl-Trp-oxazolone): 2.73
- self-aminoacylation (biotinyl-Leu-oxazolone): 2.55
- self-aminoacylation (biotinyl-Ile-oxazolone): 1.65
